From patent US20180222961A1 (IMMATICS BIOTECHNOLOGIES, published 2018)

B1: AEQDPDELNKA (peptide)
peptide: AEQDPDELNKA
B2: ALQAFEFRV (peptide)
peptide: ALQAFEFRV
B3: MPNLRSVDL (peptide)
peptide: MPNLRSVDL
B4: SLGKHTVAL (peptide)
peptide: SLGKHTVAL
B5: REEFVSIDHL (peptide)
peptide: REEFVSIDHL
B6: RQPNILVHL (peptide)
peptide: RQPNILVHL
B7: AEHFSMIRA (peptide)
peptide: AEHFSMIRA
B8: YMVHIQVTL (peptide)
peptide: YMVHIQVTL
B9: REKFIASVI (peptide)
peptide: REKFIASVI
B10: VLQGLLRSL (peptide)
peptide: VLQGLLRSL
B11: RMTTQLLLL (peptide)
peptide: RMTTQLLLL
B12: DMKKAKEQL (peptide)
peptide: DMKKAKEQL
B13: LELPPILVY (peptide)
peptide: LELPPILVY
B14: HEFGHVLGL (peptide)
peptide: HEFGHVLGL
B15: IMFDDAIERA (peptide)
peptide: IMFDDAIERA
B16: SLPRFQVTL (peptide)
peptide: SLPRFQVTL
B17: ALIYNLVGI (peptide)
peptide: ALIYNLVGI
B18: GLLQELSSI (peptide)
peptide: GLLQELSSI
B19: YLVTKVVAV (peptide)
peptide: YLVTKVVAV
B20: FAHHGRSL (peptide)
peptide: FAHHGRSL
B21: SLLDLYQL (peptide)
peptide: SLLDLYQL
B22: KEAIREHQM (peptide)
peptide: KEAIREHQM
B23: FLDPDRHFL (peptide)
peptide: FLDPDRHFL
B24: SEDPSKLEA (peptide)
peptide: SEDPSKLEA
B25: TTYEGSITV (peptide)
peptide: TTYEGSITV
B26: FLIEELLFA (peptide)
peptide: FLIEELLFA
B27: ALMRLIGCPL (peptide)
peptide: ALMRLIGCPL
B28: SAIPFSMTL (peptide)
peptide: SAIPFSMTL
B29: ALKARTVTF (peptide)
peptide: ALKARTVTF
B30: EEQYIAQF (peptide)
peptide: EEQYIAQF
B31: SVTESTHHL (peptide)
peptide: SVTESTHHL
B32: GEPATTVSL (peptide)
peptide: GEPATTVSL
B33: KLFDTQQFL (peptide)
peptide: KLFDTQQFL
B34: YLTDLQVSL (peptide)
peptide: YLTDLQVSL
B35: KVLGVNVML (peptide)
peptide: KVLGVNVML
B36: ISVPAKTSL (peptide)
peptide: ISVPAKTSL
B37: PLPRPGAVL (peptide)
peptide: PLPRPGAVL
B38: TEAVVTNEL (peptide)
peptide: TEAVVTNEL
B39: RLWDWVPLA (peptide)
peptide: RLWDWVPLA
B40: SEVPTGTTA (peptide)
peptide: SEVPTGTTA
B41: PEKTTHSF (peptide)
peptide: PEKTTHSF
B42: VSSSLTLKV (peptide)
peptide: VSSSLTLKV
B43: MMEEMIFNL (peptide)
peptide: MMEEMIFNL
B44: YTFRYPLSL (peptide)
peptide: YTFRYPLSL
B45: SLLLPSIFL (peptide)
peptide: SLLLPSIFL
B46: HESSSHHDL (peptide)
peptide: HESSSHHDL
B47: VLLAGFKPPL (peptide)
peptide: VLLAGFKPPL
B48: ALFKAWAL (peptide)
peptide: ALFKAWAL
B49: KVVSVLYNV (peptide)
peptide: KVVSVLYNV
B50: IEALSGKIEL (peptide)
peptide: IEALSGKIEL
notes: also called lEALSGKIEL
B51: STIPALHEI (peptide)
peptide: STIPALHEI
B52: MIPTFTALL (peptide)
peptide: MIPTFTALL
B53: EDAALFKAW (peptide)
peptide: EDAALFKAW
B54: FESHSTVSA (peptide)
peptide: FESHSTVSA
B55: QEILTQVKQ (peptide)
peptide: QEILTQVKQ
B56: REPGDIFSEL (peptide)
peptide: REPGDIFSEL
B57: VGREKKLAL (peptide)
peptide: VGREKKLAL
B58: TISSLTHEL (peptide)
peptide: TISSLTHEL
B59: RLLDFINVL (peptide)
peptide: RLLDFINVL
B60: TEFPLFSAA (peptide)
peptide: TEFPLFSAA
B61: GLLSLTSTLYL (peptide)
peptide: GLLSLTSTLYL
B62: SDSQVRAF (peptide)
peptide: SDSQVRAF
B63: YLEDTDRNL (peptide)
peptide: YLEDTDRNL
B64: LNKQKVTF (peptide)
peptide: LNKQKVTF
B65: GVATRVDAI (peptide)
peptide: GVATRVDAI
B66: DTDSSVHVQV (peptide)
peptide: DTDSSVHVQV
B67: YASEGVKQV (peptide)
peptide: YASEGVKQV
B68: TLLKALLEI (peptide)
peptide: TLLKALLEI

Experiments:
HLA-B*44:02 = target: T1, HLA-B*44:02 (human); assay: UV-exchange b2m ELISA; exchange-yield grade
T1 construct: also called peptide-receptive MHC molecules
Summary of the method: (§1)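 Binding capacity is graded by how much β2m-containing, stabilised complex survives UV-induced loss of the placeholder peptide. An anti-β2m sandwich ELISA on streptavidin capture, calibrated with refolded monomers (15-500 ng/ml), measures this.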

HLA-A*02:01 = target: T2, HLA-A*02:01 (human); assay: UV-exchange b2m ELISA; exchange-yield grade
T2 construct: also called peptide-receptive MHC molecules
Summary of the method: as §1

[1] = target: T3, human recombinant HLA-B*08:01 and b2m (human); assay: pMHC dissociation assay at 37 C; mean half-life grade
T3 construct: expressed in E. coli and purified; stability of the peptide-MHC complex read as b2m associated with the heavy chain over time at 37 C
Method: Peptide-MHC stability assays for HLA-B*08:01 peptides were performed. The data were obtained using a proximity based, homogenous, real-time assay in order to measure the dissociation of peptides from HLA class I molecules. First, human recombinant HLA-B*08:01 and b2m were expressed in E. coli and purified in a series of liquid chromatography based steps (Ferre et al., 2003; Ostergaard et al., 2001). Then, the stability of a peptide-MHC complex (pMHC) was determined by measuring the amount of b2m associated with the MHC heavy chain over time at 37° C. (Harndahl et al., 2012). The stability of each pMHC, expressed as the half life of b2m associated with the respective heavy chain, was calculated by fitting the data to a one-phase dissociation equation.

Row | Binder | peptide exchange yield (HLA-B*44:02) [%] | peptide exchange yield (HLA-A*02:01) [%] | further results
1 | B1 | 20 to 50 | – | –
2 | B2 | – | > 75 | –
3 | B3 | – | – | mean half-life (T1/2) of peptide-MHC complex [1]: 4 to 6 h
4 | B4 | – | 50 to 75 | –
5 | B5 | 20 to 50 | – | –
6 | B6 | – | 20 to 50 | –
7 | B7 | 20 to 50 | – | –
8 | B8 | – | > 75 | –
9 | B9 | 20 to 50 | – | –
10 | B10 | – | > 75 | –
11 | B11 | – | 50 to 75 | –
12 | B12 | – | – | mean half-life (T1/2) of peptide-MHC complex [1]: 2 to 4 h
13 | B13 | 10 to 20 | – | –
14 | B14 | 20 to 50 | – | –
15 | B15 | – | > 75 | –
16 | B16 | – | > 75 | –
17 | B17 | – | > 75 | –
18 | B18 | – | > 75 | –
19 | B19 | – | > 75 | –
20 | B20 | – | 10 to 20 | –
21 | B21 | – | 20 to 50 | –
22 | B22 | 20 to 50 | – | –
23 | B23 | – | > 75 | –

Row | Binder | peptide exchange yield (HLA-B*44:02) [%] | peptide exchange yield (HLA-A*02:01) [%] | further results
24 | B24 | 10 to 20 | – | –
25 | B25 | – | > 75 | –
26 | B26 | – | > 75 | –
27 | B27 | – | > 75 | –
28 | B28 | – | 50 to 75 | –
29 | B29 | – | – | mean half-life (T1/2) of peptide-MHC complex [1]: 6 to 10 h
30 | B30 | 10 to 20 | – | –
31 | B31 | – | 50 to 75 | –
32 | B32 | 20 to 50 | – | –
33 | B33 | – | > 75 | –
34 | B34 | – | > 75 | –
35 | B35 | – | > 75 | –
36 | B36 | – | 10 to 20 | –
37 | B37 | – | 10 to 20 | –
38 | B38 | 20 to 50 | – | –
39 | B39 | – | > 75 | –
40 | B40 | 20 to 50 | – | –
41 | B41 | 10 to 20 | – | –
42 | B42 | – | 10 to 20 | –
43 | B43 | – | > 75 | –
44 | B44 | – | 50 to 75 | –
45 | B45 | – | > 75 | –
46 | B46 | 20 to 50 | – | –

Row | Binder | peptide exchange yield (HLA-B*44:02) [%] | peptide exchange yield (HLA-A*02:01) [%] | further results
47 | B47 | – | 10 to 20 | –
48 | B48 | – | > 75 | –
49 | B49 | – | > 75 | –
50 | B50 | 20 to 50 | – | –
51 | B51 | – | 50 to 75 | –
52 | B52 | – | 50 to 75 | –
53 | B53 | 20 to 50 | – | –
54 | B54 | 10 to 20 | – | –
55 | B55 | 20 to 50 | – | –
56 | B56 | 20 to 50 | – | –
57 | B57 | – | – | mean half-life (T1/2) of peptide-MHC complex [1]: 4 to 6 h
58 | B58 | – | > 75 | –
59 | B59 | – | > 75 | –
60 | B60 | 10 to 20 | – | –
61 | B61 | – | > 75 | –
62 | B62 | 10 to 20 | – | –
63 | B63 | – | > 75 | –
64 | B64 | – | – | mean half-life (T1/2) of peptide-MHC complex [1]: > 10 h
65 | B65 | – | 20 to 50 | –
66 | B66 | – | 10 to 20 | –
67 | B67 | – | 50 to 75 | –
68 | B68 | – | > 75 | –
